The values that follow are results of earlier work, collected in paper PMC3362950.

Usually Kd stands for the concentration at which binding is half-saturated.

The target in this series is Kv1.3 (UniProt P22001).
UniProt P22001, sequence (P22001 whole entry): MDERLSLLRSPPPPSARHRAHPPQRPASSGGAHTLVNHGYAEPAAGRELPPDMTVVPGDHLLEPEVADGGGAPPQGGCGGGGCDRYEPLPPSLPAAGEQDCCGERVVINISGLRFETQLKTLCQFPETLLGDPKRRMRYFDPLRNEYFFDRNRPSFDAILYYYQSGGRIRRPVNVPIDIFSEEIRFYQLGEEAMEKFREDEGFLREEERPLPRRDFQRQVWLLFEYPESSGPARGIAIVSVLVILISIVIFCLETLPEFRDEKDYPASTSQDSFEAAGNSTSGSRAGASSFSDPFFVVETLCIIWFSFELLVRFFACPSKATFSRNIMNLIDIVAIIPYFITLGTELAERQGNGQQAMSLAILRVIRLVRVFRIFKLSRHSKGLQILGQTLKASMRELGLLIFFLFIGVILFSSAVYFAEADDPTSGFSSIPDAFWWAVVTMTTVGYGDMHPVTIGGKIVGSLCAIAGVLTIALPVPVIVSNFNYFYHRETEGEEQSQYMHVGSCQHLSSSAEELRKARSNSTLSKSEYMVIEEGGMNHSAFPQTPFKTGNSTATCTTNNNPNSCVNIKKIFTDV

Regarding KTX (from UniProt P24662), the Kd is 0.01 nM.
